Measurements taken from the supplement of paper PMC12042874.
± gives the uncertainty stated by the source.

Assay: amyloid nucleation score (Sup35N fusion, yeast selection) (log enrichment); library NNK2; higher = more nucleation; inactive = no reads after selection
In short: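 After 24 hours of induction with 100 μM copper sulfate, psi-negative yeast expressing peptides of 20 random codons fused to Sup35N were grown for 7 days at 30°C on medium lacking adenine and uracil. Input and output plasmid inserts were sequenced with Illumina, and sequences with under 100 input reads were discarded. Scores for nucleation are the DiMSum log enrichment of output over input reads, centred on the mode score of non-aggregating sequences.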

Row | Substance | amyloid nucleation score
1 | LQNFRCTGCVLFCMHICPAM | 4.84 ± 0.075
2 | IDFSRQTYLNCKKSRSSLLS | -0.437 ± 0.61
3 | ERTCSIRDPNRDIPGFPFSY | inactive
4 | GRCWI | 1.39 ± 0.24
5 | NWLQFF | 0.966 ± 0.13
6 | VLVSLFLPLENYFG | -0.549 ± 1
7 | IKCRVITQSCIPSSINRLDG | -0.114 ± 1.1
8 | MFVQCICRGIHIIVPGSVRS | 3.88 ± 0.13
9 | SRSILLKAGWI | inactive
10 | IINYANLSTVVNFYIRIGYC | 6.812 ± 0.028
11 | NCYNMVYNCVPSEKAVKTCR | 0.264 ± 0.32
12 | SHGPLR | 5.556 ± 0.053
13 | TGLTLVV | -0.094 ± 1
14 | LRSEFRFIYLRLTWKVR | inactive
15 | VVFRIVNRACVMYGVTGGND | -0.915 ± 0.63
16 | MMSSRILGVFDSSSTICVRH | -0.218 ± 0.38
17 | ILVTVNTGSFLKSILHWL | 2.31 ± 0.19
18 | GRELRTVRNAGPFDQWVGVS | 5.79 ± 0.086
19 | FFSRFERPLQCNIFKL | 4.13 ± 0.12
20 | GDAWGTSNIDQSWKLYLSGT | -0.12 ± 0.3
21 | CVSVPFYQVCFVGPKMEPLG | 0.636 ± 0.18
22 | FWFKV | 0.335 ± 0.42

Row | Substance | amyloid nucleation score
23 | IREGLFRVTIDYSSMLCSGR | 3.01 ± 0.12
24 | GGWLAWVRKSYVIVFVWGGG | 0.257 ± 0.46
25 | ETHIITCLRYRRRMARPHRY | inactive
26 | RNSYALNINEM | -0.4 ± 0.38
27 | NQDPRSRLLSNELYGCHFVL | -0.214 ± 0.28
28 | VTLIRSSRVATSCHGGTLFC | 3.45 ± 0.092
29 | TPAWQLYGHTVLAGVQKNMV | -0.077 ± 0.37
30 | VFWHMSIIHIVCRIILSKDW | inactive
31 | SITFFKNAFVAIHIAR | inactive
32 | MNHISLFFRSEVQVCGVFC | 8.609 ± 0.052
33 | FDWNVDDYTFIYDN | -2.38 ± 0.75
34 | KWRDRNDINNFRQGLLCSVN | 3.03 ± 0.14
35 | SNGLGLQCGIRGKVFNELLS | -0.674 ± 0.42
36 | CNLWSDLGWYYQAMWKIRRD | inactive
37 | LSACIALASGYVGISGW | inactive
38 | GVIVCTWPRPRDCS | 0.72 ± 0.58
39 | NVWVSDFVGERAGDLHLSLY | 0.025 ± 1.1
40 | TSDLNNSSSMKAYSNEHSGC | 0.411 ± 0.4
41 | DQKAIVMVRNLDAWVGCAHY | 0.266 ± 0.46
42 | FMNNMSWLKNFILTWIYKRR | inactive
43 | VNRVTRPNECYACQYMFGRW | 1.19 ± 0.18
44 | VYTQYYNTKSKISYCFLRLI | inactive

Row | Substance | amyloid nucleation score
45 | ASVNSRSINSSGQFPPCFRK | -0.434 ± 0.61
46 | CYMYDSVTNWTYWLSG | -0.679 ± 0.26
47 | GLGMGDFCILVKLKANVSRC | -0.266 ± 1
48 | KGSEPLYGLCIIMV | 0.851 ± 0.8
49 | YHTRIYDL | 0.576 ± 0.45
50 | ELALGIHYPFNKLYDINKGC | -1.5 ± 0.35
51 | ALMDCACFVYSRD | -0.199 ± 1.1
52 | QYLLIIMFRYYLYCGVQRNY | -0.121 ± 1.1
53 | VMYYEGG | -0.561 ± 0.63
54 | ALNPVCL | 0.623 ± 0.62
55 | CSMVNDLSFNIEARMQSWNS | 0.028 ± 0.79
56 | YSVLFL | -0.722 ± 0.54
57 | AGLIRCLLRGTCNRNFFSLY | inactive
58 | HSLCLVVLGFML | 5.428 ± 0.04
59 | FLFTQGRLGGGYIVEYLCQL | 3.3 ± 0.15
60 | HLGSDRGDAWVANVKPERWD | 1.03 ± 0.31
61 | LCILVFRGASRSLFSGGVFT | -0.199 ± 0.76
62 | LEYFITTSGSSSKVLHGFTM | -0.986 ± 1.1
63 | VGLVMHGIVLCLMLSHMSWR | 0.354 ± 0.41
64 | IHIWGSLSIDIEFVCGMKAR | 1.04 ± 0.56
65 | RIATLSFDSAIIQVYLRGSG | 7.028 ± 0.033
66 | SKGSWIDVSYDLV | -0.132 ± 0.37

Row | Substance | amyloid nucleation score
67 | STVMWLRASLRIQNYTRGDT | 4.54 ± 0.052
68 | SMEAFYRGFFKTPWSY | -0.2 ± 0.29
69 | VFFGPTFCFVPYVNMRCLVP | 8.082 ± 0.059
70 | CVKRRWPEVIRVHVGGYSFN | 0.455 ± 0.5
71 | LMKLNSTLSFDYFPLT | -0.166 ± 0.65
72 | VGVLSEDIYCSAQPYLGRSG | 0.331 ± 0.4
73 | RNRAENV | -0.36 ± 0.76
74 | VDRRNAKYWRGRKSTWVRGV | 1.3 ± 0.26
75 | KRAMPLSLTSRRLWISSGTG | -0.708 ± 1.1
76 | STAWKCEVYRRV | 1.14 ± 0.33
77 | CGCCRTRGL | 2.94 ± 0.054
78 | TFNISLAWCEFFSHIFLLN | inactive
79 | NKSGDSQLLRVYYIVLVFMW | -1.08 ± 0.62
80 | CLYRTLWSCLWSGMMIFCTD | -1.77 ± 1
81 | FVWGREMGCWCQEWYRCMRN | -0.015 ± 0.24
82 | KRNLVCAISFLDSRSCRRTA | 0.119 ± 0.24
83 | MMFILLYKTFCAGEWAGGMY | 6.053 ± 0.04
84 | SVSVYTASS | inactive
85 | NPWVRFVVSCLYAVSQQCGL | 4.66 ± 0.07
86 | NRIFGTHLTFSGYS | -0.466 ± 0.5
